US11732048B2, “Anti-axl antagonistic antibodies” (BERGEN TEKNOLOGIOVERFØRING AS, priority 2016, dated 2023)
Entries after “also recorded” stand apart in the source; their conditions may differ.

How the values were obtained:
[1] = tested on: Axl autophosphorylation (Tyrosine 866) in HeLa cells; test: Phospho-Axl (Y866) ELISA on HeLa cell lysates; type: cell-based, human
Procedure: To assess the level to which various Axl inhibitors reduce activation of Axl, as assessed through on of inhibition of Tyrosine 866 (Y866), one of Axl's known autophosphorylation sites (others include Y779 and Y821—see Oncotarget. 2014 October; 5(20): 9546-9563; doi: 10.18632/oncotarget.2542 and references cited therein).
Lysate Preparation • 1. Seed out HeLa cells in 14 10-cm dishes • a. 3 million cells per dish • 2. Incubate cells until attached • 3. Remove medium and wash cells with PBS • 4. Serum-starve the cells in 0.5% FBS media • a. 0.5% MEM for HeLa • b. O/N, at least 24 hour starvation • 5. Incubate cells with anti-Axl antibodies for 1 hour in 6 ml fresh 0.5% MEM. • a. BGB324 (CAS=1037624-75-1, UNII=0ICW2LX8AS): 0.2 uM • b. H2L1-Evitra*: 50 ug/ml • c. H2L1-Catalent*: 50 ug/ml • d. YW327.6S2: 50 ug/ml • *same sequence, different preparation • 6. Stimulate designated plates with 0.01 ug/ml rhGas6 in 6 ml of total media per 10-cm dish. • a. rhGas6 stimulation 0.01 ug/ml • 7. Set-up: Make each in 26 ml of 0.5% MEM • #1. Starvation • #2. rhGas6 stimulation (0.01 ug/ml) • #3. rhGas6 stimulation+pre-incubation with BGB324 0.2 uM • #4. rhGas6 stimulation+pre-incubation with H2L1-Evitra: 50 ug/ml • #5. rhGas6 stimulation+pre-incubation with H2L1-Catalent: 50 ug/ml • #6. rhGas6 stimulation+pre-incubation with YW327.6S2 50 ug/ml • #7. BGB324 0.2 uM alone • #8. H2L1-Evitra: 50 ug/ml alone • #9. H2L1-Catalent: 50 ug/ml alone • #10. YW327.6S2 50 ug/ml alone • 8. Stop reaction by lysing cells on ice • 9. Wash with cold PBS • 10. Add RIPA buffer (plus phosphatase inhibitors) • a. 100 ul/dish • 11. Scrape cells from dish • 12. Incubate 5-10 min on ice • 13. Spin down 13,000 rpm 5-10 min (cold) • 14. Supernatant transferred to fresh tube • 15. Measure phospho-protein by ELISA […]
Materials • Nunc MaxiSorp 96C plates • Tris-buffered saline (TBS) pH7.6 • Tween 20 (Sigma) • Wash buffer (TBS+0.05% Tween 20) • Fetal bovine serum (FBS) (Sigma) • Monoclonal mouse anti-HsAxl antibody 5F11, 3.6 mg/ml stock (BerGenBio). • Polyclonal rabbit anti-Hs-phospho-Y866 Axl antibody pAxl-Y866-16, 1.0 mg/ml (BerGenBio). […] For HeLa cells total protein concentration 1.5 mg/ml gives a strong signal. • Microplate reader with 450 nm absorbance. Absorbance at 595 nm (if available) should be subtracted to reduce background, but the effect is marginal. […]
Develop • Prepare fresh substrate solution: • 100 μl 10 mg/ml TMB stock solution • 10 μl 30% Hydrogen peroxide solution • 9.9 ml 100 mM Sodium acetate pH6 • Optional: test a small volume of the substrate solution by adding 1 μl leftover HRP-conjugated detection antibody mixture (step 12). […] Read plate on microplate reader with absorbance of 450 nm.

[2] = tested on: Axl-dependent phosphorylation of Akt in LX2 cells; test: Axl-dependent AKT activation (pAkt Ser473 Western blot) in LX2 cells; type: cell-based, human
Procedure: Activation of Axl by Gas6 or cross-linking antibodies leads to phosphorylation of Akt.
Effect of Axl blocking antibodies in blocking Axl-dependent AKT activation in LX2 cells: • Cells were seeded in 12-well/plate (2×10^5 cells/well) in DMEM/10% FBS and allowed to attach and grow for >24 h. […] Axl activation was read out via phosphorylation of Akt on serine 473 (Western blot).
Protein Analysis: • Cells were lysed in RIPA buffer (150 mM NaCl, 1.0% IGEPAL® CA-630, 0.5% sodium deoxycholate, 0.1% SDS, 50 mM Tris, pH 8.0., SIGMA-ALDRICH) supplemented with antiproteases and anti-phosphatases (PMSF, sodium orthovanadate, protease inhibitor cocktail, and sodium fluoride), adjusted to 1× Laemmli loading buffer, sonicated, and centrifuged. 20-30 μl of the samples were subjected to 8% sodium dodecyl sulphate-polyacrylamide gel electrophoresis and then transferred to nitrocellulose membranes. Membranes were blocked in 5% BSA-FAF and washed in TBS Tween buffer and then developed with Pierce-ECL western blotting Substrate. • The antibodies used were p-AKT (p-Akt1/2/3 (C-11)), 1:200 in 5% BSA/TBS-T, o/n at 4° C.; AKT (1:200), followed by anti-mouse m-IgGκ BP-HRP (1:2000, 1 h, RT); anti-AKT (Akt1/2/3 (H-136)), 1:400, 1 h, RT followed by anti-rabbit-IgG-HRP (1:20000, 1 h, RT).
Activation of Axl is often achieved by treating Axl with its ligand, Gas6. […]

[3] = target: T1, human Axl (rhAxl-Fc chimera) (Homo sapiens, UniProt P30530); test: Biacore kinetic analysis (surface plasmon resonance) on immobilised rhAxl-Fc; type: binding
T1 construct: Soluble recombinant antigens corresponding to the extracellular domains of members of the human TAM receptor family; Fc; purchased R&D Systems 154-AL
Procedure: Kinetic analysis of murine MAb 10G5 interacting with rhAxl immobilized on the surface of the Biacore sensor chip. Overlay plots of sensograms for different antibody concentrations (0.3-166.7 nM for murine 10G5) are shown. The precise kinetic analysis was performed using BIA evaluation software and curve fitting according to 1:1 Langmuir binding model. […]
Affinity determination of anti-Axl antibody 10G5 was performed at 25° C. by surface plasmon resonance measurements using Biacore 3000 instrument (GE Healthcare). As a solid antigen-coated surface, a sensor chip CM5 with immobilized rhAxl-Fc chimera (R&D Systems, Cat. no. 154-AL) at density 190 RU was used.
For the kinetics measurements, different concentrations of anti-Axl antibodies (from 0.3 to 666.7 nM) in HBS-EP buffer (Biacore, Cat. no. BR-1001-88) were injected at flow rate of 30 μL/min with 3 min injection time followed by 5 min dissociation (buffer alone). After each cycle, the surface was regenerated by 30 sec injection of a regeneration solution (10 mM HCl, 1 M NaCl) at flow rate 50 μL/min.
The kinetic association (on-rate, kon) and dissociation (off-rate, koff) rates were calculated using BIAevaluation software and 1:1 Langmuir binding model. The equilibrium dissociation constant (KD) was calculated as the koff/kon ratio. The half-life (t1/2) of the formed antibody-antigen complexes was calculated as the ln 2/koff ratio. […]

A549 tumours = test: A549 human NSCLC xenograft in mice (Examples 14, 16, 17, 18); type: in vivo, mouse; conditions: SCID mice, 30 mg/kg i.p. twice weekly, after two weeks of treatment, versus control (SYNAGIS)
Text: SCID mice were implanted subcutaneously (s.c.) into the flank with 5×10^6 A549 cells resuspended in serum-free medium/Matrigel (1:1).

[4] = target: T2, Hs-Axl-Fc (immobilized Axl-Fc) (Homo sapiens, UniProt P30530); test: Biacore binding competition assays, two injections (Example 22); conditions: Gas6 10 μg/mL as first protein
T2 construct: Fc
Text: Sensor chip with immobilised Axl: Hs-Axl-Fc (638.2 RU), Mm-Axl-Fc (334.5 RU), Rhe-Axl-Fc (350.2 RU)
In this experiment, a first antibody was allowed to bind to saturation. A second antibody was then applied and its ability to bind was monitored.
If the second antibody recognizes the same (or overlapping) epitope as the first antibody then binding will be blocked. If the second antibody recognizes a different epitope then binding will be detected at the same level as if no first antibody was present.
The ability of Gas6 to block antibody binding was also tested, using Gas6 at 10 μg/mL in HBS-EP.
All tests were performed in parallel on Hs-Axl-Fc, Mm-Axl-Fc and Rhe-Axl-Fc surfaces.
See FIG. 1 for a list of the pairs that were tested (in this list Contr-1 is incorrectly labeled YW367 instead of YW327.6S2var). All antibodies were at 25 μg/mL in HBS-EP.
• 2. Perform Biacore experiments at 25° C. • 3. In the instrument control software choose Direct Binding, and select settings for two injections as shown below. • 4. […] Store the template & the result file, start the analysis.

[5] = agent alone, starved HeLa (antibodies 50 ug/ml, BGB324 0.2 uM, rhGas6 0.01 ug/ml)
[6] = rhGas6 0.01 ug/ml stimulation after 1 hour pre-incubation (antibodies 50 ug/ml, BGB324 0.2 uM), starved HeLa
[7] = rhAxl immobilized on Biacore sensor chip, 25° C., 1:1 Langmuir binding model

## Nc1nc(Nc2ccc3c(c2)CC[C@@H](N2CCCC2)CC3)nn1-c1cc2c(nn1)-c1ccccc1CCC2 [BGB324, 1-(6,7-dihydro-5H-benzo[6,7]cyclohepta[1,2-c]pyridazin-3-yl)-N3-((7-(S)-pyrrolidin-1-yl)-6,7,8,9-tetrahydro-5H-benzo[7]annulene-2-yl)-1H-1,2,4-triazole-3,5-diamine, reference compound]
[1]; [5]
  Absorbance @ 450 nm (pAxl reading): 0.039
[1]; [6]
  Absorbance @ 450 nm (pAxl reading): 0.045
[2]; FIG. 22B
  Inhibition of 1H12-stimulated pAkt: can be inhibited; also recorded: clear response

B1: rhGas6: recombinant human Gas6, Axl ligand (protein, listed as Homo sapiens)
chain: MAPSLSPGPAALRRAPQLLLLLLAAECALAALLPAREATQFLRPRQRRAFQVFEEAKQGHLERECVEELCSREEAREVFENDPETDYFYPRYLDCINKYGSPYTKNSGFATCVQNLPDQCTPNPCDRKGTQACQDLMGNFFCLCKAGWGGRLCDKDVNECSQENGGCLQICHNKPGSFHCSCHSGFELSSDGRTCQDIDECADSEACGEARCKNLPGSYSCLCDEGFAYSSQEKACRDVDECLQGRCEQVCVNSPGSYTCHCDGRGGLKLSQDMDTCEDILPCVPFSVAKSVKSLYLGRMFSGTPVIRLRFKRLQPTRLVAEFDFRTFDPEGILLFAGGHQDSTWIVLALRAGRLELQLRYNGVGRVTSSGPVINHGMWQTISVEELARNLVIKVNRDAVMKIAVAGDLFQPERGLYHLNLTVGGIPFHEKDLVQPINPRLDGCMRSWNWLNGEDTTIQETVKVNTRMQCFSVTERGSFYPGSGFAFYSLDYMRTPLDVGTESTWEVEVVAHIRPAADTGVLFALWAPDLRAVPLSVALVDYHSTKKLKKQLVVLAVEHTALALMEIKVCDGQEHVVTVSLRDGEATLEVDGTRGQSEVSAAQLQERLAVLERHLRSPVLTFAGGLPDVPVTSAPVTAFYRGCMTLEVNRRLLDLDEAAYKHSDITAHSCPPVEPAAA
modifications: (1)..(678) Homo sapiens Gas6
[1]; [5]
  Absorbance @ 450 nm (pAxl reading): 0.077
[2]; FIG. 22A, Gas6 versus cross-linking 1H12
  Stimulation of Akt phosphorylation: weaker

B2: H2L1: humanised variant of 10G5; presumably VH GH2 (SEQ ID NO: 2) with VL GL1 (SEQ ID NO: 3) (antibody, V domains shown)
VH: EVQLVESGGGLVQPGGSLRLSCAASGYSFTDFYINWVRQAPGKGLEWVARIFPGGDNTYYNEKFKGRFTLSADTSKSTAYLQMNSLRAEDTAVYYCARRGLYYAMDYWGQGTLVTVSS
VL: DIQMTQSPSSLSASVGDRVTITCRSSQSLVHSNGIPYLHWYQQKPGKAPKLLIYRVSNRFSGVPSRFSGSGSGTDFTLTISSLQPEDFATYYCSQGTHVPPTFGQGTKVEIK
modifications: hu10G5 VH(GH2); hu10G5 VL(GL1)
[3]; comparison referring to Table 3
  KD lower than that of the chimeric antibody: at least 50%
[3]; [7]
  Off-rate (koff): 0.000142 s⁻¹
  On-rate (kon): 2.07e+06 M⁻¹ s⁻¹
A549 tumours
  Inhibition of A549 tumour growth: around 25%
[4]
  Effect of Gas6 bound first on subsequent binding of the antibody: inhibited
[4]; listed as 1H21L1
  Effect of Gas6 bound first on subsequent binding of the antibody: blocks binding
[1]; [6]
  Absorbance @ 450 nm (pAxl reading): 0.055
